Measured values as given in publication PMC2173104.

How the values were obtained:
Assay in all cases: two-hybrid
[1] = molecular target: Gal4 binding domain Iqg1p fusion protein, Iqg1p (1–1495) (S. cerevisiae) (UniProt Q12280)
[2] = molecular target: Gal4 binding domain fusion of Iqg1p (295–823) (S. cerevisiae) (UniProt Q12280)
[3] = molecular target: Gal4 binding domain fusion of Iqg1p (1–823) (S. cerevisiae) (UniProt Q12280)

“Cdc12p in pGAD-C2 (from UniProt P32468 1-407) (natural protein)” gave a beta-galactosidase activity [1] of 23 Miller units.
“Myosin light chain protein Mlc1p in pGAD-C2 (from UniProt P53141 1-149) (natural protein)” showed a beta-galactosidase activity [2] of 408 Miller units, a beta-galactosidase activity [1] of 98.7 Miller units and a beta-galactosidase activity [3] of 107 Miller units.
